# Experimental data published in patent publication US20170298359, “OLIGONUCLEOTIDE TARGETED TO THE A20-THREE PRIME UNTRANSLATED REGION” (Max-Delbrück-Centrum für Molekulare Medizin in …, published 2017).
# T1: RC3H1-N1 (Roquin-1, RING and ROQ domains) (Homo sapiens, UniProt Q5TC82 Q5TC82:2-399)
# T1 sequence: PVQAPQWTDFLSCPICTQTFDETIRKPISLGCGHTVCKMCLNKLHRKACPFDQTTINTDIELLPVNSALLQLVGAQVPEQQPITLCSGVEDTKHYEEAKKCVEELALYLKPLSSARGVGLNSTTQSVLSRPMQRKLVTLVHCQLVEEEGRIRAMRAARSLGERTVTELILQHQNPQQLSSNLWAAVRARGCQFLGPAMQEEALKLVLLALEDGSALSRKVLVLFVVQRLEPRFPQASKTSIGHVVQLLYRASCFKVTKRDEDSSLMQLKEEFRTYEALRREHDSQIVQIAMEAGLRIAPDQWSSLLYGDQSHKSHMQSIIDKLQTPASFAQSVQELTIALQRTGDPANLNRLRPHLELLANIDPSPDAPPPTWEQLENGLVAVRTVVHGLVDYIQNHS
# T2: RC3H1-N2 (Roquin-1, RING, ROQ and CCCH zinc finger domains) (Homo sapiens, UniProt Q5TC82 Q5TC82:2-452)
# T2 sequence: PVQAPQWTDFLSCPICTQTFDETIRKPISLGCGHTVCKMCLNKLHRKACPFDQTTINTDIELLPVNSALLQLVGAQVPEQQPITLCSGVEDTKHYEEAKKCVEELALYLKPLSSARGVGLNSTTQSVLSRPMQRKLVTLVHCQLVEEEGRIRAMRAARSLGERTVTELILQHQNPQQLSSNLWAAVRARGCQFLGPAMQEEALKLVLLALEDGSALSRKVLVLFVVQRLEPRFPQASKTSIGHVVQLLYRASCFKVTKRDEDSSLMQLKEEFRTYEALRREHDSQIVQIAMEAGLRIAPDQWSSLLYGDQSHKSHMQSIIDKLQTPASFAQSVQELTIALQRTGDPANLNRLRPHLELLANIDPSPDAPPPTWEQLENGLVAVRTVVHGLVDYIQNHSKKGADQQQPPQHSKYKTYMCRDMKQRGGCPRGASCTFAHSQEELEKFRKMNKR
# Key:
# [1] = target: T1, RC3H1-N1 (Roquin-1, RING and ROQ …); experiment: EMSA; 20 mM Tris-HCl pH 7.5, 50 mM KCl, 5 mM MgCl2, 20 uM ZnSO4, 5 ug/ml heparin, room temperature; binding independent of CCCH zinc finger; settings: tags: N-terminal His7 cleaved with TEV protease, E. coli Rosetta 2 (DE3), pQLinkH; label: 5'-32P; hairpin
# Description: (§1) The EMSA was performed as described before⁴⁹ with the following modifications: RNA was prepared by 5′ end-labeling of commercially synthesized RNA oligonucleotides with [γ-³²P]-ATP using T4 polynucleotide kinase (NEB). Labeled RNA was gel purified and eluted and adjusted with H₂O to 1 pmol/μl. 50 fmol of labelled RNA was used per 20 μl reaction. Prior to binding reactions, a master mix containing labelled RNA, lx binding buffer (20 mM Tris-HCl (pH 7.5), 50 mM KCl, 5 mM MgCl₂, 20 μM ZnSO₄, 10% glycerol), 2 mM DTT, 0.05 mg/ml BSA, and 5 μg/ml heparin was heated at 90° C. for 1 min and gradually cooled down to room temperature. In parallel, a dilution series of 10× protein stocks was prepared in 1× protein dilution buffer (1× binding buffer, 5 μg/ml heparin). For each binding reaction, 2 μl of the 10× protein stock was added to 18 μl of the mastermix at room temperature for 2 h. After addition of 4 μl 6× loading buffer (30% glycerol, bromphenol blue, xylene cyanol), RNP complexes were resolved by nondenaturing PAGE (6% polyacrylamide, 0.5×TBE, 5% glycerol) in ice-cold 0.5×TBE buffer containing 20 μM ZnSO₄ at 100 V for 40 min. The protein-bound RNA and the free RNA were quantified using a phosphorimager.
# [2] = target: T2, RC3H1-N2 (Roquin-1, RING, ROQ and CCCH …); experiment: EMSA; same buffer; similar to RC3H1-N1; settings: tags: N-terminal His7 cleaved with TEV protease, E. coli Rosetta 2 (DE3), pQLinkH; label: 5'-32P; hairpin
# Description: as §1
# [3] = target: T2, RC3H1-N2 (Roquin-1, RING, ROQ and CCCH …); experiment: EMSA; same buffer; higher affinity than for the 23 nt hairpin; reduced by antisense LNA SEQ 6 (FIG. 5c); settings: tags: N-terminal His7 cleaved with TEV protease, E. coli Rosetta 2 (DE3), pQLinkH; label: 5'-32P
# Description: as §1
# [4] = target: T2, RC3H1-N2 (Roquin-1, RING, ROQ and CCCH …); experiment: EMSA; same buffer; higher affinity than RC3H1-N1; settings: tags: N-terminal His7 cleaved with TEV protease, E. coli Rosetta 2 (DE3), pQLinkH; label: 5'-32P; hairpin
# Description: as §1
binder,measurement,setting,value
AUUUCUGUGAAAU (ssRNA) [ICOS CDE-like stem-loop 13 nt],binding result,[1],binds
same,binding result,[2],binds
AUAUAUAAUAUACCCUUACAUUAUGUAUGAGGGAUUU (ssRNA) [A20 37 nt],binding result,[3],binds
ACCCUUACAUUAUGUAUGAGGGA (ssRNA) [A20 23 nt hairpin],binding result,[4],binds
